Results taken from patent US10941182 (Amgen, dated 2021).
Starred links: 1 amine or outer side, 2 acyl side, 3 side chain; linkers in the order of their positions; H or OH if unused. Non-standard residues stand in square brackets, D forms with d. Primed or numbered codes have the meaning given here. *: point of attachment. dBip = N[C@H](Cc1ccc(-c2ccccc2)cc1)C(=O)O; Oic = O=C(O)[C@@H]1C[C@@H]2CCCC[C@@H]2N1; Phe(4-Cl) = N[C@@H](Cc1ccc(Cl)cc1)C(=O)O; dPhe(4-Cl) = N[C@H](Cc1ccc(Cl)cc1)C(=O)O; Heptadecanoyl = CCCCCCCCCCCCCCCCC(=O)*; Phe(4-I) = N[C@@H](Cc1ccc(I)cc1)C(=O)O; γGlu = O=C(O)[C@H](CCC(=O)[*:2])N[*:1]; NMeR = CN[C@@H](CCCNC(=N)N)C(=O)O; Tridecanoyl = CCCCCCCCCCCCC(=O)*; hArg = N=C(N)NCCCC[C@H](N)C(=O)O; Tic = O=C(O)[C@@H]1Cc2ccccc2CN1; Cha = N[C@@H](CC1CCCCC1)C(=O)O; NMeL = CN[C@@H](CC(C)C)C(=O)O; Nle = CCCC[C@H](N)C(=O)O; Pip′ = not defined here; AEEA = NCCOCCOCC(=O)O

B1: apelin polypeptide SEQ ID NO: 228 (peptide)
peptide: Tridecanoyl-[γGlu][AEEA][AEEA]Q[hArg]P[dR][Cha]SHKG[Oic][Nle]P[Phe(4-Cl)]-OH
SMILES: CCCCCCCCCCCCC(=O)N[C@@H](CCC(=O)NCCOCCOCC(=O)NCCOCCOCC(=O)N[C@@H](CCC(N)=O)C(=O)N[C@@H](CCCCNC(=N)N)C(=O)N1CCC[C@H]1C(=O)N[C@H](CCCNC(=N)N)C(=O)N[C@@H](CC1CCCCC1)C(=O)N[C@@H](CO)C(=O)N[C@@H](Cc1c[nH]cn1)C(=O)N[C@@H](CCCCN)C(=O)NCC(=O)N1[C@H](C(=O)N[C@@H](CCCC)C(=O)N2CCC[C@H]2C(=O)N[C@@H](Cc2ccc(Cl)cc2)C(=O)O)C[C@@H]2CCCC[C@@H]21)C(=O)O
B2: apelin polypeptide SEQ ID NO: 227 (peptide)
peptide: Tridecanoyl-[γGlu][AEEA][AEEA]Q[hArg]P[dR][NMeL]SHKG[Oic][Nle]P[dBip]-OH
SMILES: CCCCCCCCCCCCC(=O)N[C@@H](CCC(=O)NCCOCCOCC(=O)NCCOCCOCC(=O)N[C@@H](CCC(N)=O)C(=O)N[C@@H](CCCCNC(=N)N)C(=O)N1CCC[C@H]1C(=O)N[C@H](CCCNC(=N)N)C(=O)N(C)[C@@H](CC(C)C)C(=O)N[C@@H](CO)C(=O)N[C@@H](Cc1c[nH]cn1)C(=O)N[C@@H](CCCCN)C(=O)NCC(=O)N1[C@H](C(=O)N[C@@H](CCCC)C(=O)N2CCC[C@H]2C(=O)N[C@H](Cc2ccc(-c3ccccc3)cc2)C(=O)O)C[C@@H]2CCCC[C@@H]21)C(=O)O
B3: apelin polypeptide SEQ ID NO: 224 (peptide)
peptide: Tridecanoyl-[γGlu][AEEA][AEEA]QRP[dR][Cha]SHKG[Oic][Phe(4-I)]P[dBip]-OH
SMILES: CCCCCCCCCCCCC(=O)N[C@@H](CCC(=O)NCCOCCOCC(=O)NCCOCCOCC(=O)N[C@@H](CCC(N)=O)C(=O)N[C@@H](CCCNC(=N)N)C(=O)N1CCC[C@H]1C(=O)N[C@H](CCCNC(=N)N)C(=O)N[C@@H](CC1CCCCC1)C(=O)N[C@@H](CO)C(=O)N[C@@H](Cc1c[nH]cn1)C(=O)N[C@@H](CCCCN)C(=O)NCC(=O)N1[C@H](C(=O)N[C@@H](Cc2ccc(I)cc2)C(=O)N2CCC[C@H]2C(=O)N[C@H](Cc2ccc(-c3ccccc3)cc2)C(=O)O)C[C@@H]2CCCC[C@@H]21)C(=O)O
B4: apelin polypeptide SEQ ID NO: 226 (peptide)
peptide: Tridecanoyl-[γGlu][AEEA][AEEA]Q[hArg]P[dR][NMeL]SHKG[Oic][Phe(4-I)]P[Phe(4-Cl)]-OH
SMILES: CCCCCCCCCCCCC(=O)N[C@@H](CCC(=O)NCCOCCOCC(=O)NCCOCCOCC(=O)N[C@@H](CCC(N)=O)C(=O)N[C@@H](CCCCNC(=N)N)C(=O)N1CCC[C@H]1C(=O)N[C@H](CCCNC(=N)N)C(=O)N(C)[C@@H](CC(C)C)C(=O)N[C@@H](CO)C(=O)N[C@@H](Cc1c[nH]cn1)C(=O)N[C@@H](CCCCN)C(=O)NCC(=O)N1[C@H](C(=O)N[C@@H](Cc2ccc(I)cc2)C(=O)N2CCC[C@H]2C(=O)N[C@@H](Cc2ccc(Cl)cc2)C(=O)O)C[C@@H]2CCCC[C@@H]21)C(=O)O
B5: apelin polypeptide SEQ ID NO: 237 (peptide)
peptide: Heptadecanoyl-[γGlu][AEEA][AEEA][dQ][hArg]P[NMeR][Cha]SHKG[Oic][Nle]P[dPhe(4-Cl)]-OH
SMILES: CCCCCCCCCCCCCCCCC(=O)N[C@@H](CCC(=O)NCCOCCOCC(=O)NCCOCCOCC(=O)N[C@H](CCC(N)=O)C(=O)N[C@@H](CCCCNC(=N)N)C(=O)N1CCC[C@H]1C(=O)N(C)[C@@H](CCCNC(=N)N)C(=O)N[C@@H](CC1CCCCC1)C(=O)N[C@@H](CO)C(=O)N[C@@H](Cc1c[nH]cn1)C(=O)N[C@@H](CCCCN)C(=O)NCC(=O)N1[C@H](C(=O)N[C@@H](CCCC)C(=O)N2CCC[C@H]2C(=O)N[C@H](Cc2ccc(Cl)cc2)C(=O)O)C[C@@H]2CCCC[C@@H]21)C(=O)O
B6: apelin polypeptide SEQ ID NO: 238 (peptide)
peptide: Heptadecanoyl-[γGlu][AEEA][AEEA]Q[dR]P[NMeR][Cha]SHKG[Oic][Nle]P[Tic]-OH
SMILES: CCCCCCCCCCCCCCCCC(=O)N[C@@H](CCC(=O)NCCOCCOCC(=O)NCCOCCOCC(=O)N[C@@H](CCC(N)=O)C(=O)N[C@H](CCCNC(=N)N)C(=O)N1CCC[C@H]1C(=O)N(C)[C@@H](CCCNC(=N)N)C(=O)N[C@@H](CC1CCCCC1)C(=O)N[C@@H](CO)C(=O)N[C@@H](Cc1c[nH]cn1)C(=O)N[C@@H](CCCCN)C(=O)NCC(=O)N1[C@H](C(=O)N[C@@H](CCCC)C(=O)N2CCC[C@H]2C(=O)N2Cc3ccccc3C[C@H]2C(=O)O)C[C@@H]2CCCC[C@@H]21)C(=O)O
B7: apelin polypeptide SEQ ID NO: 223 (peptide)
peptide: Tridecanoyl-[γGlu][AEEA][AEEA]QRP[hArg][Cha]SHKG[Oic][Phe(4-I)]P[dBip]-OH
SMILES: CCCCCCCCCCCCC(=O)N[C@@H](CCC(=O)NCCOCCOCC(=O)NCCOCCOCC(=O)N[C@@H](CCC(N)=O)C(=O)N[C@@H](CCCNC(=N)N)C(=O)N1CCC[C@H]1C(=O)N[C@@H](CCCCNC(=N)N)C(=O)N[C@@H](CC1CCCCC1)C(=O)N[C@@H](CO)C(=O)N[C@@H](Cc1c[nH]cn1)C(=O)N[C@@H](CCCCN)C(=O)NCC(=O)N1[C@H](C(=O)N[C@@H](Cc2ccc(I)cc2)C(=O)N2CCC[C@H]2C(=O)N[C@H](Cc2ccc(-c3ccccc3)cc2)C(=O)O)C[C@@H]2CCCC[C@@H]21)C(=O)O
B8: apelin polypeptide SEQ ID NO: 229 (peptide)
peptide: Tridecanoyl-[γGlu][AEEA][AEEA][hArg]Q[dR]P[NMeR][Cha]SHKG[Oic][Nle]P[Phe(4-Cl)]-OH
SMILES: CCCCCCCCCCCCC(=O)N[C@@H](CCC(=O)NCCOCCOCC(=O)NCCOCCOCC(=O)N[C@@H](CCCCNC(=N)N)C(=O)N[C@@H](CCC(N)=O)C(=O)N[C@H](CCCNC(=N)N)C(=O)N1CCC[C@H]1C(=O)N(C)[C@@H](CCCNC(=N)N)C(=O)N[C@@H](CC1CCCCC1)C(=O)N[C@@H](CO)C(=O)N[C@@H](Cc1c[nH]cn1)C(=O)N[C@@H](CCCCN)C(=O)NCC(=O)N1[C@H](C(=O)N[C@@H](CCCC)C(=O)N2CCC[C@H]2C(=O)N[C@@H](Cc2ccc(Cl)cc2)C(=O)O)C[C@@H]2CCCC[C@@H]21)C(=O)O
B9: apelin polypeptide SEQ ID NO: 225 (peptide)
peptide: Tridecanoyl-[γGlu][AEEA][AEEA]Q[hArg]P[dR][NMeL]SHKG[Oic][Nle]P[Phe(4-Cl)]-OH
SMILES: CCCCCCCCCCCCC(=O)N[C@@H](CCC(=O)NCCOCCOCC(=O)NCCOCCOCC(=O)N[C@@H](CCC(N)=O)C(=O)N[C@@H](CCCCNC(=N)N)C(=O)N1CCC[C@H]1C(=O)N[C@H](CCCNC(=N)N)C(=O)N(C)[C@@H](CC(C)C)C(=O)N[C@@H](CO)C(=O)N[C@@H](Cc1c[nH]cn1)C(=O)N[C@@H](CCCCN)C(=O)NCC(=O)N1[C@H](C(=O)N[C@@H](CCCC)C(=O)N2CCC[C@H]2C(=O)N[C@@H](Cc2ccc(Cl)cc2)C(=O)O)C[C@@H]2CCCC[C@@H]21)C(=O)O
B10: apelin polypeptide SEQ ID NO: 222 (peptide)
peptide: Tridecanoyl-[γGlu][AEEA][AEEA]QRP[hArg][NMeL]SHKG[Oic][Phe(4-I)]P[dBip]-OH
SMILES: CCCCCCCCCCCCC(=O)N[C@@H](CCC(=O)NCCOCCOCC(=O)NCCOCCOCC(=O)N[C@@H](CCC(N)=O)C(=O)N[C@@H](CCCNC(=N)N)C(=O)N1CCC[C@H]1C(=O)N[C@@H](CCCCNC(=N)N)C(=O)N(C)[C@@H](CC(C)C)C(=O)N[C@@H](CO)C(=O)N[C@@H](Cc1c[nH]cn1)C(=O)N[C@@H](CCCCN)C(=O)NCC(=O)N1[C@H](C(=O)N[C@@H](Cc2ccc(I)cc2)C(=O)N2CCC[C@H]2C(=O)N[C@H](Cc2ccc(-c3ccccc3)cc2)C(=O)O)C[C@@H]2CCCC[C@@H]21)C(=O)O

What follows are binders tested against T1, human APJ receptor (human, UniProt P35414 1-380) (assay: cell-based or functional assay).
T1 sequence (looked up): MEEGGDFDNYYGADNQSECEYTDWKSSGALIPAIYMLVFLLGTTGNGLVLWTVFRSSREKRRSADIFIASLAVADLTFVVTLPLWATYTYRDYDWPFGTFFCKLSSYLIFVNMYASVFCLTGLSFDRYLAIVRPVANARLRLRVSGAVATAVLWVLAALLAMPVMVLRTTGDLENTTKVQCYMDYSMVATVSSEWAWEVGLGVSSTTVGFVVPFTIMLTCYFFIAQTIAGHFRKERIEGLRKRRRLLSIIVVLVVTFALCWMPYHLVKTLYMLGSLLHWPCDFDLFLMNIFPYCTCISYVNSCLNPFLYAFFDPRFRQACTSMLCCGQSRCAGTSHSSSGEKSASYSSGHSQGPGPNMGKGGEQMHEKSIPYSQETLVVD

EC50 Human APJ Receptor [nM]	Binder
6.05	Heptadecanoyl-[γGlu][AEEA][AEEA]Q[dR]P[NMeR][Cha]SHKG[Oic][Nle][Pip′][Phe(4-Cl)]-OH [apelin polypeptide SEQ ID NO: 234]
0.484	B1
8.77	B2
28.2	B3
20.8	B4
4.96	B5
6.68	B6
11.3	B7
1.45	Heptadecanoyl-[γGlu][AEEA][AEEA][hArg]Q[dR]P[NMeR][Cha]SHKG[Oic][Nle][Pip′][Phe(4-Cl)]-OH [apelin polypeptide SEQ ID NO: 239]
0.235	B8
3.02	B9
1.23	B10
0.468	Ac-[dR][hArg]Q[hArg]P[dR][NMeL]SHKG[Oic][Phe(4-I)]P[dBip]-OH [apelin polypeptide SEQ ID NO: 18]

What follows are binders tested against T2, rat APJ receptor (rat, UniProt Q9JHG3 1-377) (assay: cell-based or functional assay).
T2 sequence (looked up): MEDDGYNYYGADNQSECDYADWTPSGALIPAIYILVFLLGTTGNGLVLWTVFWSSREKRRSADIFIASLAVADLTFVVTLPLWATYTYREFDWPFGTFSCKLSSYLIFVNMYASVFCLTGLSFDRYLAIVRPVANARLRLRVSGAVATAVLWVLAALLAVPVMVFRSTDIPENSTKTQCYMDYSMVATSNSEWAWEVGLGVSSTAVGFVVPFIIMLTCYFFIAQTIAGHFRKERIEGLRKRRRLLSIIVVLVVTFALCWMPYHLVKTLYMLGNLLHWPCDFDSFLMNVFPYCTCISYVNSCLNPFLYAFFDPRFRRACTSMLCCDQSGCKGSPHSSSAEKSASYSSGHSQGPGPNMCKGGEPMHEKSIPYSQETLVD

EC50 Rat APJ Receptor [nM]	Binder
12.5	Heptadecanoyl-[γGlu][AEEA][AEEA]Q[dR]P[NMeR][Cha]SHKG[Oic][Nle][Pip′][Phe(4-Cl)]-OH [apelin polypeptide SEQ ID NO: 234]
7.91	B1
97.5	B2
102	B3
91	B4
4.89	B5
28.5	B6
52.8	B7
8.61	Heptadecanoyl-[γGlu][AEEA][AEEA][hArg]Q[dR]P[NMeR][Cha]SHKG[Oic][Nle][Pip′][Phe(4-Cl)]-OH [apelin polypeptide SEQ ID NO: 239]
3.29	B8
47.9	B9
6.87	B10
0.523	Ac-[dR][hArg]Q[hArg]P[dR][NMeL]SHKG[Oic][Phe(4-I)]P[dBip]-OH [apelin polypeptide SEQ ID NO: 18]
